Test results taken from patent US20020031818A1, “Modification of Mdm2 activity” (priority 2000, published 2002).

Tests used:
Type in all cases: cell-based, mouse
[1] = tested on: Mdm2; test: In vivo ubiquitination of Mdm2 in EJ cells (HA-Ub, Mdm2 immunoprecipitation); conditions: forced expression in EJ p19 null cells
From the text: (§1) FIG. 14A-14E. A. In vitro ubiquitination of Mdm2 is inhibited by p19^ARF. GST-Mdm2 was subjected to an in vitro ubiquitination reaction using purified forms of E1, E2 and Ub-HA in the presence of ATP. Addition of bacculovirus-purified p19^ARF at the indicated concentrations blocked Mdm2 ubiquitination. Glutathione bead-coupled GST-Mdm2 in its ubiquitinated or non-ubiquitinated forms was washed and analyzed on immunoblots using antibodies to HA (upper panel). Middle panel depicts the level of Mdm2 expression and the lower panel, the level of p19^ARF added to the reaction. B. p19^ARF expression increases Mdm2 self-ubiquitination in EJ cells. EJ cells were transfected with the indicated plasmids. Cells were harvested 36 h later and proteins ([…]) were immunoprecipitated using Mdm2 antibodies (2A10). Immunoprecipitated material was washed and proteins loaded onto 10% SDS-PAGE, followed by immunoblot analysis with HA-antibodies to detect covalent HA-ubiquitin conjugation to Mdm2 (upper panel). Middle panel depicts level of immunoprecipitated Mdm2. Lower panel represents western analysis of p19^ARF expression levels. C. In vitro ubiquitination of Mdm2 in the presence of p19^ARF and protein extracts. […] The level of p53 immunoprecipitated was monitored in immunoblots using polyclonal antibodies to p53 (middle). […]

[2] = tested on: p53; test: p53 ubiquitination and p53 level in EJ cells
From the text: as §1

[3] = tested on: p53 transcriptional activity; test: p21-luc luciferase reporter assay in EJ cells; conditions: EJ cells transfected with p53, p19ARF and p21 promoter luciferase construct
From the text: as §1, with “(2A10).” for “(2A10). Immunoprecipitated material was washed and proteins loaded onto 10% SDS-PAGE, followed by immunoblot analysis with HA-antibodies to detect covalent HA-ubiquitin conjugation to Mdm2 (upper panel). Middle panel depicts level of immunoprecipitated Mdm2. Lower panel represents western analysis of p19^ARF expression levels. C. In vitro ubiquitination of Mdm2 in the presence of p19^ARF and protein extracts.”
Non-denaturing immunoprecipitation and luciferase assay p53/Mdm2 double null cells (Fuch et al., Oncogene 17:2543-2547, 1998), EJ, NIH3T3 mouse fibroblasts and TIG human fibroblasts were maintained in DMEM (Gibco) supplemented with 10% heat-inactivated fetal bovine serum and antibiotics in 5% CO2 Transfections were performed by lipofection (LipofectaminPlus, GIBCO). […] Luciferase activity was determined using the Promega luciferase assay system (Promega, Madison, Wis.). […]

B1: p19^ARF: Mdm2-regulating protein; in vitro translated, bacculovirus-expressed or transfected (protein)
chain: MGRRFLVTVRIQRAGRPLQERVFLVKFVRSRRPRTASCALAFVNMLLRLERILRRGPHRNPGPGDDDGQRSRSSSSAQLRCRFELRGPHYLLPPGARRSAGRLPGHAGGAARVRGSAGCARCLGSPAARLGPRAGTSRHRAIFAFRWVLFVFRWVVFVYRWERRPDRRA
In the case of B1, the “degree of Mdm2 ubiquitination in vivo” value [1] is reported as “noticeable increase in the degree of Mdm2 ubiquitination”, the “levels of p53” value [2] is reported as “elevated levels of p53” and the “degree of p53 ubiquitination” value ([2]; Flag-Mdm2, wt p53, HA-Ub, p19ARF constructs 1 μg each) is reported as “noticeable decrease in the degree of p53 ubiquitination”. For the same molecule, the “p53 transcriptional activity (p21-luc)” value [3] was “corresponding increase”.
